Experimental findings from US7361133B2, “Methods of detection utilizing modified bacteriophage” (The Johns Hopkins University, priority 1997, dated 2008) are described below.

Test [1] addresses T1, N-NR1 (NH2-terminal domain of NR1, a.a 1-561) fusion protein (Rattus norvegicus, UniProt P35439).
T1 construct: N-NR1 (aa. 1-561); made in house
The experiment in a line: Phage ELISA, binding to immobilized N-NR1 fusion protein. Details: Inhibition of Mag-4.1 phage binding to N-NR1 by synthetic peptide: dose or concentration left out as unconfirmed. The method, then: Phage selection. Six wells of a 96-well plate were precoated with mAb8610 ([…]) at 37° C. for one hour, blocked with 1% BSA for 30 minutes at 37° C. The N-NR1 fusion protein was first released by PIPLC digest after extensive washes of cells that express N-NR1. The released N-NR1 protein in the MEM medium was first treated by endo-F (1 unit per 10 mg protein) for overnight at 37° C. The treated preparation was affinity-purified by mAb8610 capture on the plates (1 mg of N-NR1 per well) at 22° C. for one hour. The phage binding was carried out by incubating with a total of 10^12 tu (transducing units) of a X9 library with a complexity of 1.2×10^10 recombinants. The binding buffer contains 10 mM Tris-HCl (pH 8.1), 100 mM NaCl and 1 mM EDTA for 3 hours at 4° C. Unbound material was removed with three washes of the binding buffer. The bound phagemid particles were recovered by adding […] of 0.1 M glycine-HCl (pH 2.2). After 10 minutes elution at room temperature, the elutes were immediately neutralized by mixing with equal volume of 0.1 M Trisbase (pH 9.2). The recovered phagemids were amplified in bacteria, and resultant phage preparations were used for the following round of purification.
After five consecutive rounds of selection, the ELISA tests were performed using the supernatant of overnight cultures in the presence of 100 mM Hepes-NaOH (pH7.5) and 100 mM NaCl. The wells were coated with receptors according to the procedure described above. The bound phage particles were first detected by using rabbit anti-phage antibody (1:10,000) followed by alkaline phosphatase (AP)-conjugated secondary antibody (1:5,000, Sigma). After washing the wells with the binding buffer, […] of developing solution containing 1 mg/ml pNPP (Sigma, Mo.) in 10 mM diethanolamine-HCl (pH 9.7) was added. The alkaline phosphatase activity was monitored at the wavelength of 408 nm using a microtiter plate reader. Phage purification. The bacteria in culture medium containing phage was removed by centrifugation at 5,000×g for 30 minutes. […]

Test [2] concerns the target T2, N-NR1 protein on CHO cells (Rattus norvegicus, UniProt P35439).
T2 construct: N-NR1 (aa. 1-561); expressed in transfected cells
The experiment in a line: Phage-FACS of CHO cells expressing N-NR1. It counts as cell-based, Chinese hamster. The protocol: (§1) Immunostain and Fluorescence Activated Cell Sorting (FACS). The cells were grown on cover glass coated with 1% gelatin. Prior to addition of immunoglobulin, the cells were first washed three times with cold PBS and fixed with 2% paraformaldehyde (PFA) overnight. After washing the cells with cold PBS, the fixed cells were incubated with mAb8610 (1 mg /ml) at room temperature for 1 hour. The binding of mAb8610 was detected by incubating with anti-mouse conjugated with Texas-red (15 mg per ml) 1 hour at 4C. The immunostain was visualized by a Nikon Optiphot-2 fluorescent microscope and images were collected/digitalized using a computer. Cytometry of stained cells were analyzed on either FACScan or FACStar Plus Sorter (Becton-Dickinson, San Jose, Calif.). An Argon laser is used and tuned at 488 nm. The green fluorescence was recorded in the FLI emission channel.
(§2) Phage-immunostain and Phage-FACS detection. The purified phage preparation was used to stain live cells. For immunostain the cells were washed three times with cold PBS. Phage binding were initiated by incubating with the cells with purified phage (10^10 tu per ml) on ice for 1 hour. […] The phage-binding was detected first by rabbit anti-phage antibody (1:10,000 dilution) followed by Fluorescein labeled anti-rabbit antibody (10 mg/ml, Vector Lab, Calif.). The fluorescence labeled cells were visualized under a fluorescence microscope. […]

Test [3] has as its target T3, N-NR1 protein on cell surface of CHO cells (Rattus norvegicus, UniProt P35439).
T3 construct: N-NR1 (aa. 1-561); expressed in transfected cells
In words: Phage-immunostain of CHO cells expressing N-NR1 on cell surface. It is filed as cell-based, Chinese hamster. Conditions: 500 mM Mag-4.1 peptide. The protocol:
as §1, §2

Test [4] concerns the target T4, functional NMDA receptor channels (NR1 and NR2A) in HEK cells (Rattus norvegicus, UniProt P35439).
T4 construct: expressed in transfected cells; host or cells: HEK cells, transient cotransfection
The experiment in a line: Phage-immunostain of HEK cells transiently expressing NR1 and NR2A. It is filed as cell-based. The following applies: 500 mM synthetic Mag-4.1 peptide. The method, then: Phage-immunostain and Phage-FACS detection. The purified phage preparation was used to stain live cells. For immunostain the cells were washed three times with cold PBS. Phage binding were initiated by incubating with the cells with purified phage (10^10 tu per ml) on ice for 1 hour. After incubation, the unbound phage was removed by three washes of cold PBS supplemented with 1% bovine serum albumin (BSA). the fixation was carried out using 2% PFA overnight at 4C. The phage-binding was detected first by rabbit anti-phage antibody (1:10,000 dilution) followed by Fluorescein labeled anti-rabbit antibody (10 mg/ml, Vector Lab, Calif.). The fluorescence labeled cells were visualized under a fluorescence microscope. For Phage-FACS, the cell preparation procedures were identical except the cells were first dislodged from the dishes by incubating with PBS supplemented with 5 mM EDTA.

The target in test [5] is N-NR1 fusion protein (putative amino-terminal domain of NR1, a.a 1-561, fused to the mAb8610 epitope tag and GPI anchor signal sequence) (UniProt P35439). The experiment in a line: phage-overlay on nitrocellulose after denaturation-renaturation.

As for GGGLNDWFITYIGGG [Mag-4.1 peptide], in test [1] (competition phage ELISA (FIG. 1C)), the “Affinity of monovalent peptide” value is listed as “low affinity”. Besides, in test [1] (synthetic peptide, phage ELISA), the “Inhibition of Mag-4.1 phage binding to N-NR1 by synthetic peptide” value was “completely inhibited”. Further, the “Inhibition of FACS phage stain signal by synthetic peptide, low N-NR1 CHO cells” value in test [2] (500 mM Mag-4.1 peptide (FIG. 5C)) is “completely inhibited”. Moreover, in test [2] (500 mM Mag-4.1 peptide (FIG. 5E)), the “Effect of synthetic peptide on FACS staining signal, 1:1 mixture of low and high N-NR1 CHO cells” value was “the staining signal is sensitive to Mag-4.1 peptide”. Also, in test [3], the “Inhibition of phage staining signal by synthetic peptide” value was “completely inhibited”. Further, the “Inhibition of phage stain signal on NR1/NR2A HEK cells by synthetic peptide” value in test [4] was “completely inhibited”.

For LEAWFLQYI [Mag-4.2], the “Phage binding to N-NR1” value in test [1] (phage ELISA, immobilized N-NR1) is “specifically association with N-NR1”.

B1: Mag-4.1 phage (peptide, not shown: large carriers)
chain: LNDWFITYI
With B1, the least amount of N-NR1 protein per lane at which specific binding is detected in test [5] is 20 ng.
